The target of experiment [1] is T1, androgen receptor (AR) N-terminus (18-500) (Rattus norvegicus, UniProt P15207).
T1 construct: receptor residues 18 through 500 (using the rat androgen receptor number scheme); expressed in transfected cells; host or cells: Saccharomyces cerevisiae EGY188
T1 sequence (P15207 18-500): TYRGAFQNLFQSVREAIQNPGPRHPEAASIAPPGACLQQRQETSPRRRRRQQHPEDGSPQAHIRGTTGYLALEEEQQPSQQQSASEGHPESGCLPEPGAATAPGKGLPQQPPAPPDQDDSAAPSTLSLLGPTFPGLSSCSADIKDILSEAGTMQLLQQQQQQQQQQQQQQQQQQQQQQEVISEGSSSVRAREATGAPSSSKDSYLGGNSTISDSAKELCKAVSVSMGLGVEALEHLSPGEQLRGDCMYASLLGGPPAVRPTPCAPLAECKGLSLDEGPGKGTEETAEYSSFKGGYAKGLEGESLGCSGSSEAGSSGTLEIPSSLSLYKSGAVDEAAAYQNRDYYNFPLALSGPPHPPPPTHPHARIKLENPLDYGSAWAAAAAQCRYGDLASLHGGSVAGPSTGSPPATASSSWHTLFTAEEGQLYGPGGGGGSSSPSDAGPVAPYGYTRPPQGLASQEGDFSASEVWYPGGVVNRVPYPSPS
Briefly: Modified yeast two-hybrid, qualitative plate beta-galactosidase assay. Type of experiment: binding. An excerpt:
The modified yeast two hybrid assay is described in Hittelman et al., 1999. EGY188 was transformed by the lithium acetate method with (i) pJG4-5:AR18-500, (ii) pEG202:LNCaP cell cDNA library and (iii) pJK103, a β-galactosidase reporter gene with a single LexA operator. Potential interacting proteins were selected by plating the cDNA library expressing transformants onto galactose plates lacking leucine and containing X-gal.
To analyze the specificity of ART interaction, the capacity of the strongest androgen receptor N-terminus-interacting factors to associate with a panel of transcriptional regulatory proteins in the modified yeast two-hybrid assay was examined. ART-5, ART-27, and ART-37 were tested for interaction with Sp1A (Sp183-262), Sp1B (Sp1263-524) the cyclic AMP response element binding protein (CREB3-296), TBP-associated factor 130 (TAFII130270-700), the glucocorticoid receptor AF1 (GR107-237), and the steroid receptor coactivator-1 (SRC-1374-800).
The strength of interaction was determined by a qualitative plate beta-galactosidase assay after a 24 hour incubation on galactose X-gal plates at 301 C.
ART-27 derivatives containing amino acids 1-45, 1-67, 1-127, 46-157, 68-157, 127-157, 1-157, and 1-45/127-157 were expressed as fusion proteins with LexA. These derivatives were tested for their ability to interact with the androgen receptor N-terminus (AR18-500). The strength of interaction was determined by a qualitative plate beta-galactosidase assay after a 24 hour incubation on galactose X-gal plates at 301 C.

Experiment [2] has as its target T2, androgen receptor ligand-binding domain (579-901) (Rattus norvegicus, UniProt P15207).
T2 construct: expressed in transfected cells; host or cells: yeast (modified two-hybrid assay)
T2 sequence (P15207 579-901): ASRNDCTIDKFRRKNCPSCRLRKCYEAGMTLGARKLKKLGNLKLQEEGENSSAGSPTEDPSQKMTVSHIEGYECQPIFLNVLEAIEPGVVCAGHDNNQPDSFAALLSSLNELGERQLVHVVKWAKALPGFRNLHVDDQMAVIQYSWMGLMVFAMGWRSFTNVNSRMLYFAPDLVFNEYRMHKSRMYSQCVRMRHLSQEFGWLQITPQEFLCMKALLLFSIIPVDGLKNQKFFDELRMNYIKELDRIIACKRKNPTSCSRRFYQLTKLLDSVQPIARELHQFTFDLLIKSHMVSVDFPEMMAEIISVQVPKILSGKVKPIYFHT
As to the kind of experiment: Modified yeast two-hybrid specificity panel. To be noted: absence or presence of hormone.

The values that follow come from US20080081903A1, “METHOD FOR SCREENING TRANSCRIPTIONAL COREGULATORY PROTEINS OF TRANSCRIPTION FACTORS, AND ANDROGEN RECEPTOR TRANSCRIPTIONAL COREGULATORY PROTEINS AS TARGETS FOR ANDROGEN RECEPTOR-DEPENDENT DISEASES” (NEW YORK UNIVERSITY, priority 2001, published 2008).

B1: ART-5: Androgen Receptor Trapped protein, SEQ ID NO:4, unknown function, represented in EST database (protein)
chain: MHNPDGSASPTADPGSELQTLGQAARRPPPPRAGHDAPRRTRPSARKPLSCFSRRPMPTREPPKTRGSRGHLHTHPPGPGPPLQGLAPRGLKTSAPRPPCQPQPGPHKAKTKKIVFEDELLSQALLGAKKPIGAIPKGHKPRPHPVPDYELKYPPVSSERERSRYVAVFQDQYGEFLELQHEVGCAQAKLRQLEALLSSLPPPQSQKEAQVAARVWREFEMKRMDPGFLDKQARCHYLKGKLRHLKTQIQKFDDQGDSEGSVYF
modifications: Human
As for B1, in experiment [1] (24 hour incubation on galactose X-gal plates), the “interaction with androgen receptor N-terminus” value is given as “interacts exclusively”. Further, the “specificity of interaction among panel of transcriptional regulatory factors” value in experiment [1] (AR N-terminus, AR LBD, Sp1A, Sp1B, CREB, TAFII130, GR AF1, SRC-1) is “interacts rather specifically”. Also, the “interaction with androgen receptor ligand binding domain” value in experiment [2] is given as “No interaction”.
